The values that follow come from the Immune Epitope Database (IEDB).

As a reminder, the IC50 is the concentration that gives 50% inhibition. A word on the Kd: it is the equilibrium constant for the complex coming apart. The low end stands for a tighter complex, the high end for a looser complex.

For one test, the target named is HLA-B*27:04. In words: IEDB peptide-MHC binding, cellular MHC/competitive/fluorescence; ≥ and ≤ were set here for values at or beyond the usual limits of such assays. Conditions: source organism: Human herpesvirus 4 strain B95-8.
The target in the next test is HLA-B*35:01. The test is described as above. The following applies: source organism: Mycobacterium tuberculosis H37Rv.
Test [1] has as its target HLA-B*14:02. Put plainly: IEDB peptide-MHC binding, purified MHC/direct/fluorescence; filed as Kd, often an IC50 or EC50 that approximates it; ≥ and ≤ were set here for values at or beyond the usual limits of such assays. Conditions: source organism: Homo sapiens.
Test [2] addresses HLA-B*27:05. Put plainly: IEDB peptide-MHC binding, purified MHC/competitive/fluorescence; ≥ and ≤ were set here for values at or beyond the usual limits of such assays. Conditions: source organism: hepatitis C virus genotype 1a.
The target of test [3] is HLA-A*29:02. In words: IEDB peptide-MHC binding, purified MHC/competitive/radioactivity; ≥ and ≤ were set here for values at or beyond the usual limits of such assays. The following applies: source organism: Human papillomavirus 16.
Another test deals with HLA-C*06:02. In words: IEDB peptide-MHC binding, purified MHC/direct/fluorescence; filed as Kd, often an IC50 or EC50 that approximates it; ≥ and ≤ were set here for values at or beyond the usual limits of such assays. The following applies: source organism: Shigella boydii CDC 3083-94.
Another test deals with HLA-A*02:01. In words: IEDB peptide-MHC binding, purified MHC/competitive/fluorescence; filed as Kd, often an IC50 or EC50 that approximates it; ≥ and ≤ were set here for values at or beyond the usual limits of such assays. The following applies: source organism: Shigella boydii CDC 3083-94.
Test [4] concerns the target HLA-A*29:02. Described as above. Conditions: source organism: Shigella boydii CDC 3083-94.
The target in the next test is HLA-A*26:01. The test is described as above. Conditions: source organism: Shigella boydii CDC 3083-94.
Another test deals with HLA-B*40:13. Described as above. Conditions: source organism: Shigella boydii CDC 3083-94.
For a further test, the target named is HLA-A*32:07. Described as above. Conditions: source organism: Shigella boydii CDC 3083-94.
Another test concerns the target HLA-B*51:01. Described as above.
The next test addresses HLA-B*83:01. Described as above.
The target of a further test is HLA-A*03:19. The description is as above. The following applies: source organism: Shigella boydii CDC 3083-94.
For test [5], the target named is HLA-B*18:01. Described as above. Conditions: source organism: Shigella boydii CDC 3083-94.
For a further test, the target named is HLA-B*15:42. The description is as above.
A further test addresses HLA-B*27:20. The test is described as above. The following applies: source organism: Shigella boydii CDC 3083-94.
For the next test, the target named is HLA-A*02:19. Described as above. Conditions: source organism: Shigella boydii CDC 3083-94.
In a further test the target is HLA-C*14:02. Described as above.
The next test deals with HLA-B*45:06. The test is described as above.
For test [6], the target named is HLA-B*57:01. The test is described as above. The following applies: source organism: Shigella boydii CDC 3083-94.
Another test concerns the target HLA-A*32:15. The test is described as above. Conditions: source organism: Shigella boydii CDC 3083-94.
For test [7], the target named is HLA-B*27:03. The test is described as above. The following applies: source organism: Shigella boydii CDC 3083-94.
The next test concerns the target HLA-A*66:01. In words: IEDB peptide-MHC binding, purified MHC/direct/fluorescence; filed as Kd, often an IC50 or EC50 that approximates it; ≥ and ≤ were set here for values at or beyond the usual limits of such assays. The following applies: source organism: Giardia lamblia ATCC 50803.
The target in the next test is HLA-A*03:01. Described as above. Conditions: source organism: Giardia lamblia ATCC 50803.
For test [8], the target named is HLA-A*29:02. The description is as above. Conditions: source organism: Giardia lamblia ATCC 50803.
Another test has as its target HLA-A*23:01. The description is as above. The following applies: source organism: Giardia lamblia ATCC 50803.
The target of test [9] is HLA-B*18:01. The description is as above. The following applies: source organism: Giardia lamblia ATCC 50803.
Another test concerns the target HLA-C*12:03. Described as above. Conditions: source organism: Giardia lamblia ATCC 50803.
The next test concerns the target HLA-A*68:02. The test is described as above. Conditions: source organism: Giardia lamblia ATCC 50803.
The next test concerns the target HLA-C*05:01. The description is as above. Conditions: source organism: Giardia lamblia ATCC 50803.
Test [10] has as its target HLA-B*57:01. Described as above. The following applies: source organism: Giardia lamblia ATCC 50803.
For a further test, the target named is HLA-A*24:03. The description is as above. The following applies: source organism: Giardia lamblia ATCC 50803.
For test [11], the target named is HLA-B*27:03. Described as above. The following applies: source organism: Giardia lamblia ATCC 50803.
The next test addresses HLA-B*44:02. In words: IEDB peptide-MHC binding, purified MHC/competitive/fluorescence; filed as Kd, often an IC50 or EC50 that approximates it; ≥ and ≤ were set here for values at or beyond the usual limits of such assays. The following applies: source organism: Giardia lamblia ATCC 50803.
The target in another test is HLA-B*40:01. The description is as above. The following applies: source organism: Giardia lamblia ATCC 50803.
Another test deals with HLA-A*11:01. The description is as above. The following applies: source organism: Giardia lamblia ATCC 50803.
Test [12] deals with HLA-B*14:02. The description is as above. The following applies: source organism: Giardia lamblia ATCC 50803.
The target of a further test is HLA-A*68:23. The test is described as above. The following applies: source organism: Giardia lamblia ATCC 50803.
The target in the next test is HLA-A*01:01. The test is described as above. The following applies: source organism: Giardia lamblia ATCC 50803.
A further test concerns the target HLA-B*07:02. Described as above. Conditions: source organism: Giardia lamblia ATCC 50803.
A further test concerns the target HLA-B*08:01. The test is described as above. Conditions: source organism: Giardia lamblia ATCC 50803.
In test [13] the target is HLA-B*27:05. Described as above. The following applies: source organism: Giardia lamblia ATCC 50803.
Another test addresses HLA-B*58:01. The description is as above. The following applies: source organism: Giardia lamblia ATCC 50803.
A further test deals with HLA-B*53:01. Described as above. Conditions: source organism: Giardia lamblia ATCC 50803.
In another test the target is HLA-A*30:02. The description is as above. Conditions: source organism: Giardia lamblia ATCC 50803.
A further test concerns the target HLA-B*46:01. Put plainly: IEDB peptide-MHC binding, cellular MHC/competitive/fluorescence; ≥ and ≤ were set here for values at or beyond the usual limits of such assays. The following applies: source organism: Human herpesvirus 4 strain B95-8.
Setting [14] is: source organism: Shigella boydii CDC 3083-94.
Where [15] appears, read: source organism: Giardia lamblia ATCC 50803.

SRRTSRPNR returned a concentration for half-maximal inhibition (IC50) in the test with HLA-B*27:04 of 10000 nM.
In the case of MPVGGQSSFY, the IC50 with HLA-B*35:01 came out at 300 nM.
NEVLHQEL: the dissociation constant Kd in the test with HLA-B*14:02 [1] was determined as 294 nM.
GKAVICGKY: the half-maximal inhibitory concentration (IC50) in the test with HLA-B*27:05 [2] is 4670 nM.
As to IFVYIPLFL, the IC50 with HLA-A*29:02 [3] is 444 nM.
On to GMMRWCMPV, for which the Kd with HLA-C*06:02 was not below 20000 nM; in the test with HLA-A*02:01, not above 0.1 nM; in the test with HLA-A*29:02 [4], 51.5 nM; with HLA-A*26:01 it was not below 20000 nM; with HLA-B*40:13 it was 201 nM; with HLA-A*32:07, 5.2 nM. The Kd with HLA-B*51:01 (setting [14]) was not below 20000 nM; with HLA-B*83:01 (setting [14]), not below 5000 nM; in the test with HLA-A*03:19 it was 1130 nM; with HLA-B*18:01 [5], not below 20000 nM; with HLA-B*15:42 (setting [14]) it was 16900 nM; in the test with HLA-B*27:20 it was 0.4 nM. Besides, the equilibrium dissociation constant (Kd) with HLA-A*02:19 is 0.2 nM; in the test with HLA-C*14:02 (setting [14]) it was 93.6 nM; with HLA-B*45:06 (setting [14]), 69.2 nM; in the test with HLA-B*57:01 [6], not below 20000 nM; with HLA-A*32:15 it was 813 nM; in the test with HLA-B*27:03 [7], not below 20000 nM.
For MTYLDGHPV, the Kd with HLA-A*66:01 was 134 nM; with HLA-A*03:01, not below 20000 nM; with HLA-A*29:02 [8], 6 nM; with HLA-A*23:01 it was not below 20000 nM; with HLA-B*18:01 [9], not below 20000 nM; with HLA-C*12:03, 153 nM. In addition, the Kd with HLA-A*68:02 is not above 1 nM; in the test with HLA-C*05:01 it was not below 20000 nM; with HLA-B*57:01 [10], not below 20000 nM; with HLA-A*24:03, not below 20000 nM; with HLA-B*27:03 [11], not below 20000 nM; with HLA-B*44:02 it was not below 5000 nM. For the same sequence, the dissociation constant (Kd) in the test with HLA-B*40:01 was not below 5000 nM; with HLA-A*11:01, 138 nM; in the test with HLA-B*14:02 [12] it was not below 5000 nM; in the test with HLA-B*51:01 (setting [15]) it was not below 5000 nM; in the test with HLA-B*83:01 (setting [15]), not below 5000 nM; with HLA-A*68:23, not above 0.1 nM. In addition, the dissociation constant (Kd) is not below 5000 nM in the test with HLA-A*01:01; not below 5000 nM in the test with HLA-B*07:02; not below 5000 nM in the test with HLA-B*15:42 (setting [15]); not below 5000 nM in the test with HLA-B*08:01; not below 5000 nM with HLA-B*27:05 [13]; 30.3 nM in the test with HLA-C*14:02 (setting [15]). Moreover, the dissociation constant Kd with HLA-B*45:06 (setting [15]), with HLA-B*58:01, with HLA-B*53:01 and with HLA-A*30:02 was not below 5000 nM throughout.
HAMHISTGL displayed an IC50 with HLA-B*46:01 of 5000 nM.
